Assay: yeast display, Sf9 membrane polyspecificity reagent, FACS + sequencing; frameworks hold sequencing errors
In short: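 A nanobody's polyreactivity label depends on the gate it was sorted from. Yeast display cells were stained with 10% biotinylated, detergent-solubilized Sf9 membrane reagent for 1 hour at 4 °C, enriched on streptavidin microbeads and sorted by FACS. The low and high (top ~1%) gates were set on anti-HA fluorescence for expression and streptavidin fluorescence for reagent binding.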

| Sequence | polyreactivity (PSR sort gate) |
| --- | --- |
| QVQLVESGGGLVQAGGSLRLSCAASGRTFYIYTRGWYRQAPGKERELVAAISSSGDSTYYADSVKGRFTISRDNAKNTVYLQMNSLKPEDTAVYYCAAYPTYPDEYWGQGTQVTVSS | low polyreactivity |
| QVQLVESGGGLVQAGGSLRLSCAASGRTFYKNAIGWYRQAPGKERELVAAITATYYADSVKGRFTISRDNAKNTVYLQMNSLKPEDTAVYYCNAYLYPKQPLSPPYPTFEGGYCGQGTQVTVSS | low polyreactivity |
| QVQLVESGGGLVQAGGSLRLSCAASGRTFYKNAMGWYRQEPGTERELVAAISSRGGRTTYADSVKGRFTISRDNAKNTVYLQMISLKPEDTAVYYCAADWAQVYHGTPKYYYWGQGTQVTVSS | high polyreactivity |
| QVQLVESGGGLVQAGGSLRLSCAASGRTFYKYAMGWYRQAPAKESELVAAISTRGTNTYYADSVKGRFTISRDYAKNTVYLQMKSLKPEDTAVYYCAAVTASPYSHDYWGQGTQVTVSS | high polyreactivity |
| QVQLVESGGGLVQAGGSLRLSCAASGRTFYKYAMGWYRQAPGKERELVAVINWSGGRTYADSVKGRFTISRDNAKNTVYLQMNSLKPEDTAVYYCNAESYEFHRAWGDYDYWGQGTQVTVSS | low polyreactivity |
| QVQLVESGGGLVQAGGSLRLSCAASGRTFYKYAMGWYRQAPWKERELVAAISSDGTTYYADSVKGRFTISRDNAKNTVYLQMNSLKPEDTAVYYCAKDRKYADNDYWGQGTQVTVSS | low polyreactivity |
| QVQLVESGGGLVQAGGSLRLSCAASGRTFYLNAMGWYRQAPGKERELVATISYTGDTTYYADSVKGRFTISGDNALNTVYLQMNSLKPEDTAVYYCAALPSRPRGYDYWGQGTQVTVSS | high polyreactivity |
| QVQLVESGGGLVQAGGSLRLSCAASGRTFYLYAMGWYRPAPGKERELVAAITWRGGSTYYADSVKGRFTISRDNAKNTVYLQMNSLKPEDTAVYYCAAVTFFYYSAVRYEYYYWGQGTQVTVSS | high polyreactivity |
| QVQLVESGGGLVQAGGSLRLSCAASGRTFYLYAMGWYRQAPGKERELVAAITWRGGSTYYADSVKGRFTISRDNAKNTVYLQMNSLKPEDTAVYYCAAVTFFYYSAVRYEYYYWGQGTQVTVSS | high polyreactivity |
| QVQLVESGGGLVQAGGSLRLSCAASGRTFYLYAMGWYRQAPGKERELVADISWDGDSTYYADSVKGRFTISRDNAKNTVYLQMNSLKPEDTAVYYCAADYFYYYEQYLWYTYDYWGQGTQVTVSS | high polyreactivity |
| QVQLVESGGGLVQAGGSLRLSCAASGRTFYLYTMGSSRQAPGKERELVAAITGGGRTYYADSVKGRFTISRDNAKNTVYLQMNSLKPEDTAVYYCNADYAYYSYDYWGQGTQVTVSS | low polyreactivity |
| QVQLVESGGGLVQAGGSLRLSCAASGRTFYLYTMGWYRQAPGKVSELVATISDGGGGTYYADSVKGRFTISRDNAKNTVYLQMNRLKPEDTAVYYCSADPIDVRDVPIPHVDFDYWGQGTQVTVSS | low polyreactivity |
| QVQLVESGGGLVQAGGSLRLSCAASGRTFYLYTMGWYRQAPWKERELVAGISWSGGSTYADSVKGRFTLSRDNAKNTVYLQMNSLKPEDTAVYYFNADDVRGLFYYWGQGTQVTVSS | low polyreactivity |
| QVQLVESGGGLVQAGGSLRLSCAASGRTFYNAMGWYRPAPGKERELVAAITTGGGTKYADSVKGRCTISRDNAKNTVYLQMNSLKPEDTAVYYCNTDEWYHFYHGAHKYDYWGQGTQVTVSS | low polyreactivity |
| QVQLVESGGGLVQAGGSLRLSCAASGRTFYNAMGWYRQAPGKERELVAAISASGARTYYADSVKGRFTISRDNAKNTVYLQMNSLKPEDTAVYYCATKSQRYARDYWGQGTQVTVSS | high polyreactivity |
| QVQLVESGGGLVQAGGSLRLSCAASGRTFYNAMGWYRQAPGKERQLVAAITTGGGTKYADSVKGRFTISRDNAKNTVYLEMNSLKPEDTAVYYCNTDEWNHFYHGAHKYDYWGQGTQVTVSS | low polyreactivity |
